According to patent US20250093368A1 (BEIJING INSTITUTE OF HEART LUNG AND BLOOD VESSEL DISEASES, published 2025):
Changes are numbered by the printed parent chain. Names may count otherwise.

B1: 2C2 (antibody, V domains shown)
VH: QSVEESGGRLVTPGGSLTLTCTVSGFSLSSYFMIWVRQAPGKGLEYIGIHSDTGSTDYASWAKGRFTISKTSTTVDLKMTSLTASDTATYFCARDGGNDAYYYFNIWGPGTLVTVSS
VL: AYDMTQTPASVEVAVGGTVTINCQASQSISTALAWYQQKPGQPPKPLIYEASKLASGVPSRFKGSGSGTEFILTISDLECADAATYYCQQGASARNIASNVFGGGTEVVVKG
notes: Rabbit monoclonal IgG against S100A8 (rabbit E15229); Biotin-labeled when used as detecting antibody
B2: Flag tag - S100A8 (expression product from plasmid 1; also the S100A8 chain co-expressed from plasmid 5) (other)
chain: DYKDDDDKLTELEKALNSIIDVYHKYSLIKGNFHAVYRDDLKKLLETECPQYIRKKGADVWFKELDINTDGAVNFQEFLILVIKMGVAAHKKSHEESHKE
B3: S100A9 - 6 x His tag (expression product from plasmid 2) (other)
chain: MTCKMSQLERNIETIINTFHQYSVKLGHPDTLNQGEFKELVRKDLQNFLKKENKNEKVIEHIMEDLDTNADKQLSFEEFIMLMARLTWASHEKMHEGDEGPGHHHKPGLGEGTPHHHHHH
notes: pET-28a, BamHI/HindIII
B4: T7-tag - S100A9-1 - 6 x His tag (S100A9-1 chain co-expressed from plasmid 4 and plasmid 5) (other)
chain: B3 chain with E9A
notes: Single chain of the co-expression constructs, written as a molecule of its own for the dimer formation results; also called mutant S100A9; not shown: T7-tag
B5: S100A9-1 (E9A) - 6 x His tag (expression product from mutant plasmid 2) (other)
chain: B3 chain with E9A
notes: pET-28a, BamHI/HindIII; also called mutant S100A9
B6: 3D8 (antibody, V domains shown)
VH: QSVEESGGRLVTPGTPLTLTCTVSGIDLSTNPMGWVRQAPGKGLEWIGIIFADTGEIYYATWAKGRFTISETSSTTVDLKITSPTAEDTATYFCVRGSPSSANIWGPGTLVTVSS
VL: AAVLTQTPSPVSAAVGGTVTISCQSSQSVYNNNWLGWYQQKPGQPPKLLIYRASTLASGVPSRFKGSGSGTQFTFTISDLECDDAATYYCAGTYRRNSDNGFGGGTEVVVKG
notes: as for B1
B7: 5H10 (antibody, V domains shown)
VH: B6 VH with K64R
VL: B6 VL with P61S, F75L, D79G
notes: Rabbit monoclonal IgG against S100A8 (rabbit E15229); Tested as B cell supernatant, LEM supernatant and purified recombinant antibody; biotin-labeled when used as detecting antibody; also called anti-S100A8 monoclonal antibody 5H10
B8: 7C4 (antibody, V domains shown)
VH: QSVEESGGRLVTPGTPLTLTCTVSGIDLSSGWMNWVRQAPGGGLEWIGTINSGGSPYYARWAKGRFTLSTTSTTVDLKITSPTTEDTATYFCGSRDFWGPGTLVTVSS
VL: AQVLTQTASPVSAAVGGTVTINCQASQSVYNNNYLAWYQQKPGQPPKRLIYAASNLASGVSSRFKGSGSGTQFTLTISDLQCDDAATYYCSGGYDCDSADCSVFGGGTEVVVKG
notes: Rabbit monoclonal IgG against S100A9 (rabbit E16675); also called 7C4-HRP; 7C4 (biotin-labeled)
B9: 8A11 (antibody, V domains shown)
VH: B8 VH with G42K, T49V, G53Y, S55R, P56T, L68I, T70I
VL: B8 VL with G17S, N31K, A52S, N55T, L80V, S91G
notes: Rabbit monoclonal IgG against S100A9 (rabbit E16675); Biotin-labeled when used as detecting antibody; also called 8A11 (biotin-labeled)

Legend:
[1] = target: T1, S100A8 protein in patient sera (human, UniProt P05109 1-93); experiment: Dot Blot, B cell supernatant on patient sera
T1 construct: Native serum protein; also called S100A8 signal in patient serum
T1 sequence (looked up): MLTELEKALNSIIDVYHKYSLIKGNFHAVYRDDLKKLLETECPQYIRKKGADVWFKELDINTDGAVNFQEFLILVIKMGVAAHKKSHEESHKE

[2] = target: T2, S100A8 recombinant protein (pET-28a-S100A8 (1-93 aa) expressed protein) (human, UniProt P05109 1-93); experiment: ELISA, B cell supernatant on expressed S100A8 antigen; positive = OD greater than 0.7
T2 construct: Immunogen and ELISA screening antigen, expressed from pET-28a; also called S100A8 antigen; expressed S100A8 antigen
T2 sequence: T1 sequence (looked up)

[3] = target: T3, commercial S100A8/S100A9 Heterodimer (R&D) heterodimer protein (UniProt P05109 1-93; P06702 2-114, limits assumed); experiment: ELISA, LEM supernatant, heterodimer coated at 1 µg/mL
T3 construct: Bought, purity >95%; also called S100A8/S100A9 heterodimer protein standard; commercial S100A8/S100A9 protein
T3 sequence (looked up) 1: T1 sequence (looked up)
T3 sequence (looked up) 2: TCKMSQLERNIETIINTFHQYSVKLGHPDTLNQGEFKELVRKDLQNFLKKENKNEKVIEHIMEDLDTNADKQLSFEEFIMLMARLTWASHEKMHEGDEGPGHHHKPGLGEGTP
Excerpt: The ELISA reaction conditions were as follows: [0196]

[4] = target: T4, commercial S100A8 protein (ab167749, Recombinant human MRP8 protein) (human, UniProt P05109 1-93); experiment: ELISA, B cell supernatant on commercial S100A8 protein ab167749; positive = OD greater than 0.7
T4 construct: Bought; also called commercial S100A8 antigen
T4 sequence (looked up): T1 sequence (looked up)

[5] = target: the molecule itself; experiment: SDS-PAGE of Flag-purified protein, homodimer band at 30 KDa
Excerpt: (§1) (8) SDS-PAGE gel electrophoresis: the supernatant obtained after lysis and the purified protein were mixed with 6×Loading Buffer according to a volume ratio of 5:1 for sample preparation; and the prepared sample was subjected to SDS-PAGE gel electrophoresis together with bovine serum albumin (BSA, purchased from BioFroxx, Cat. No. 4240GR025) and Marker, wherein plasmid 1 and mutant plasmid 1 were the final samples purified by Flag-Tag, plasmid 2 and mutant plasmid 2 were the final samples purified by His-Tag, and plasmid 3 and plasmid 4 were the final samples purified by His-Tag and Flag-Tag. […] In panel C, the “Supernatant” refers to the supernatant obtained after centrifugation during first lysis, and the “Supernatant 2” refers to the supernatant obtained by performing second lysis treatment on the precipitate obtained after first lysis and centrifugation and then performing centrifugation.

[6] = target: the molecule itself; experiment: SDS-PAGE of His-purified protein, homodimer band at 34 KDa
Excerpt: as §1

[7] = target: B2; experiment: co-expression, purification by His-Tag then Flag-Tag, SDS-PAGE
[8] = target: the molecule itself; experiment: SDS-PAGE of protein purified by His-Tag and Flag-Tag
Excerpt: as §1
Except for the synthesized gene of interest (gene of interest S100A8+S100A9-1 in plasmid 5), the construction and expression and purification method for plasmid 5 was the same as that for plasmids 3 and 4, which was not described in detail herein.

[9] = target: the molecule itself; experiment: SDS-PAGE of His-purified protein
Excerpt: as §1

[10] = target: T5, S100A8/S100A9-1 recombinant protein (expression product from plasmid 5) (human, UniProt P05109 2-93; P06702 1-114); experiment: sandwich ELISA, 5H10 coated at 0.5 µg/mL, 7C4-HRP detecting
T5 construct: also called S100A8/S100A9-1 heterodimer; S100A8/S100A9-1 (S100A9 mutant) heterodimer; not shown: T7-tag
T5 chain 1: B2 chain
T5 chain 2: B3 chain with E9A
Experimental: (1) Experimental steps: [0270] standard: commercial R&D S100A8/S100A9 heterodimer protein, 2-fold gradient dilution from 40 ng/mL, with a total of 8 concentrations, lower limit of 0.625 ng, and boundary value of 40-0.625; [0271] reaction system: 96-well plate reaction system, laboratory buffer; [0272] coating antibody concentration: 5H10 (anti-S100A8 antibody), 0.5 μg/mL; [0273] detecting antibody concentration: 7C4-HRP (directly labeled), antibody dilution ratio of 1:20000 or 1:10000; [0274] TMB development: dilution ratio being 1:2, and color development time being 15 min.

[11] = target: T6, S100A9 protein in patient sera (human, UniProt P06702 2-114, limits assumed); experiment: Dot Blot, B cell supernatant on patient sera
T6 construct: Native serum protein; also called S100A9 signal in patient serum
T6 sequence (looked up): T3 sequence (looked up) 2

[12] = target: T7, commercial S100A9 protein (ab95909, Recombinant Human S100A9 protein) (human, UniProt P06702 1-114); experiment: ELISA, LEM supernatant, antigen coated at 1 µg/mL
T7 construct: Bought; also called commercial A9 protein
T7 sequence (looked up): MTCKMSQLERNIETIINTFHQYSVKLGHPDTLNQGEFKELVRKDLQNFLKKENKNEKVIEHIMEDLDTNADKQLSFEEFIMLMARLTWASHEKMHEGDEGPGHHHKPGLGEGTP
Excerpt: (§2) The ELISA reaction conditions were as follows: [0207]

[13] = target: T8, S100A9 recombinant protein (pET-28a-S100A9 (1-114 aa) expressed protein) (human, UniProt P06702 1-114); experiment: ELISA, LEM supernatant, antigen coated at 1 µg/mL
T8 construct: Immunogen and ELISA screening antigen, expressed from pET-28a; also called S100A9 antigen; expressed S100A9 antigen
T8 sequence: T7 sequence (looked up)
Excerpt: as §2

Measured: binding result

B1
binds: [1] | [2] | [3] | [4]

B2
binds: [5]

B3
binds: [6]

B4
binds: [7] | [8]

B5
binds: [9]

B6
binds: [1] | [2] | [3] | [4]

B7
binds: [1] | [2] | [3] | [4] | [10]

B8
binds: [11] | [3] | [10] | [12] | [13]

B9
binds: [11] | [3] | [12] | [13]
